# Reference: paper PMC4939597, “Mechanism for insulin-like peptide 5 distinguishing the homologous relaxin family peptide receptor 3 and 4” (Scientific Reports, 2016)
# No end group written: not given here.
# Key:
# human RXFP4 [1] = target: T1, human RXFP4 (Homo sapiens, UniProt Q8TDU9); assay: Receptor activation assay, CRE-controlled NanoLuc reporter; assay type: cell-based; settings: HEK293T cells cotransfected with human RXFP4 and CRE-controlled NanoLuc reporter; 1.0 μM forskolin; 37 °C, 4 h; mean ± SE, n = 3; SEM
# T1 construct: expressed in transfected cells; host or cells: HEK293T
# Protocol: (§1) Figure 4 Receptor activation activities of the mature INSL5 and R3/I5 mutants towards RXFP3 and RXFP4. HEK293T cells transiently cotransfected by human RXFP3 or human RXFP4 and a CRE-controlled NanoLuc reporter were used for the activation assays. The measured data were expressed as mean ± SE (n = 3) and fitted to sigmoidal or linear curves using the software SigmaPlot 10.0.
# (§2) The receptor activation assays of the mature INSL5 and R3/I5 mutants were carried out using a cAMP-response element (CRE)-controlled NanoLuc reporter according to our previous procedure. Briefly, HEK293T cells were transiently cotransfected with the expression construct of human RXFP3 or human RXFP4 and the CRE-controlled NanoLuc reporter vector pNL1.2/CRE. Next day, the transfected cells were trypsinised, seeded into a 96-well plate, and continuously cultured for 24–36 h to ~90% confluence. To start activation assay, the medium was removed and the activation solution (serum-free DMEM medium plus 1% bovine serum albumin) containing 1.0 μM of forskolin and varied concentrations of peptide was added (100 μl/well). After being continuously cultured at 37 °C for 4 h, the activation solution was removed and the cells were lysed by lysis solution (100 μl/well, from Promega). The cell lysate was then transferred to a white opaque 96-well plate (50 μl/well), mixed with the freshly diluted substrate (50 μl/well), and bioluminescence was immediately measured on a SpectraMax M5 plate reader (Molecular Devices) using the luminescence mode. The measured bioluminescence data were expressed as mean ± SE (n = 3) and fitted to sigmoidal or linear curves using the SigmaPlot10.0 software.
# human RXFP4 [2] = target: T1, human RXFP4; assay: Receptor binding assay, competition with NanoLuc-conjugated R3/I5 tracer; settings: for pIC50 RXFP4: HEK293T cells transiently overexpressing human RXFP4, 0.5 nM NanoLuc-conjugated R3/I5 tracer, 21 °C, 2 h, mean ± SE, n = 3, SEM
# Protocol: (§3) Figure 3 Receptor binding activities of the mature INSL5 and R3/I5 mutants towards RXFP3 and RXFP4. A NanoLuc-conjugated R3/I5 peptide was used as tracer and HEK293T cells transiently overexpressing human RXFP3 or human RXFP4 were used as receptor source. The tracer concentration used in these assays was 0.5 nM. The nonspecific binding was obtained by competition with 1.0 μM of relaxin-3. The measured data were expressed as mean ± SE (n = 3) and fitted to sigmoidal curves using the software SigmaPlot 10.0.
# (§4) The receptor binding assays of the mature INSL5 and R3/I5 mutants were carried out using a NanoLuc-conjugated R3/I5 peptide as tracer and the human embryonic kidney (HEK) 293T cells transiently overexpressing human RXFP3 or human RXFP4 as receptor source. Nonspecific binding was obtained by competition with 1.0 μM of human relaxin-3. Briefly, HEK293T cells were transiently transfected with the expression construct of human RXFP3 or human RXFP4. Next day, the transfected cells were trypsinised, seeded into a 96-well plate, and continuously cultured for 24–36 h to confluence. To start binding assay, the medium was removed and the binding solution (serum-free DMEM medium plus 1% bovine serum albumin) containing 0.5 nM of the NanoLuc-conjugated R3/I5 tracer and varied concentrations of competitor was added (100 μl/well). After incubation at 21 °C for 2 h, the binding solution was removed and the cells were washed twice by ice-cold phosphate-buffered saline (200 μl/well for each wash). Thereafter, the cells were lysed by lysis solution (100 μl/well, from Promega, Madison, WI, USA) and the cell lysate was transferred to a white opaque 96-well plate (50 μl/well). After mixing with the freshly diluted substrate (50 μl/well), bioluminescence was immediately measured on a SpectraMax M5 plate reader (Molecular Devices, Sunnyvale, CA, USA) using the luminescence mode. The measured bioluminescence data were expressed as mean ± SE (n = 3) and fitted to sigmoidal curves using the SigmaPlot10.0 software.
# human RXFP3 [3] = target: T2, human RXFP3 (Homo sapiens, UniProt Q9NSD7); assay: as above; settings: HEK293T cells transiently overexpressing human RXFP3; 0.5 nM NanoLuc-conjugated R3/I5 tracer; 21 °C, 2 h; mean ± SE, n = 3; SEM
# T2 construct: expressed in transfected cells; host or cells: HEK293T
# T2 sequence (Q9NSD7 1-469): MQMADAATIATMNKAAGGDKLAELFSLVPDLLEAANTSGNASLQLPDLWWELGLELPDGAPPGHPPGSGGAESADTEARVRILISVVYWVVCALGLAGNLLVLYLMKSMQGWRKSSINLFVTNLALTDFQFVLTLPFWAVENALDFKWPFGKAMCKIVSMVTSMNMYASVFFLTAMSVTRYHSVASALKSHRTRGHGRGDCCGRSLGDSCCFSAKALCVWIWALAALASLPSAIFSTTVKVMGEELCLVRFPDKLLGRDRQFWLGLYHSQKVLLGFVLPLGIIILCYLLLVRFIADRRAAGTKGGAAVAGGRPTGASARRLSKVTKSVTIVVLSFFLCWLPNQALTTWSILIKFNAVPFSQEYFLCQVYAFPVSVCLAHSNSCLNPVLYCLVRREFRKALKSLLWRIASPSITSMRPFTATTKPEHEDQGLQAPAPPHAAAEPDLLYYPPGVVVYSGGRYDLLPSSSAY
# Protocol: as §3, §4
# human RXFP3 [4] = target: T2, human RXFP3; assay: Receptor activation assay, CRE-controlled NanoLuc reporter; assay type: cell-based
# Protocol: as §1, §2
# T1 sequence (Q8TDU9 whole entry): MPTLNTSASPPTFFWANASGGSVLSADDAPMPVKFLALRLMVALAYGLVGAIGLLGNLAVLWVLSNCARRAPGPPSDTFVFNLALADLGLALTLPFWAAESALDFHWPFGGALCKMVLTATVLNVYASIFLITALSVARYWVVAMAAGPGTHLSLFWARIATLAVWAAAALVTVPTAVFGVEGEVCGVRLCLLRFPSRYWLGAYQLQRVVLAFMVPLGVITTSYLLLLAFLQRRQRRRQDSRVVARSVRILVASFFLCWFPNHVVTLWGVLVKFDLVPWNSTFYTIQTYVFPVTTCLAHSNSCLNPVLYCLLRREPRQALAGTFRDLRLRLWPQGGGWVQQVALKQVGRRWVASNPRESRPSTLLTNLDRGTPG
Compound,pEC50 RXFP4 (human RXFP4 [1]),pIC50 RXFP4 (human RXFP4 [2]),pIC50 RXFP3 (human RXFP3 [3]),further results
"[Y(B5)E,R(B12)L,F(B20)Y,G(B23)A,G(B24)S]R3/I5: recombinant mature two-chain R3/I5 mutant (chain 1 RAAPEGVRLCGLEFIRAVIYTCASSRW; chain 2 QDLQTLCCTDGCSMTDLSALC; disulfide (positions not given here); not fully specified; also: A-chain N-terminal pyroglutamate likely)",8.24 ± 0.05,7.61 ± 0.05,8.11 ± 0.02,
CC[C@H](C)[C@@H]1NC(=O)[C@H](Cc2ccccc2)NC(=O)[C@H]([C@@H](C)CC)NC(=O)[C@H](C(C)C)NC(=O)[C@H]([C@@H](C)O)NC(=O)[C@H](CCCNC(=N)N)NC(=O)[C@H]([C@@H](C)CC)NC(=O)[C@H](Cc2ccc(O)cc2)NC(=O)[C@H](CCC(=O)O)NC(=O)[C@H](CCCNC(=N)N)NC(=O)CNC(=O)[C@@H](NC(=O)[C@H](CC(C)C)NC(=O)[C@H](CCCNC(=N)N)NC(=O)[C@@H](NC(=O)[C@H](CO)NC(=O)[C@H](Cc2ccc(O)cc2)NC(=O)[C@@H](N)CCCCN)C(C)C)CSSC[C@@H]2NC(=O)[C@@H](NC(=O)[C@H](CC(C)C)NC(=O)[C@@H](NC(=O)[C@H](CCC(N)=O)NC(=O)[C@H](CC(C)C)NC(=O)[C@H](CC(=O)O)NC(=O)[C@@H](N)CCC(N)=O)[C@@H](C)O)CSSC[C@H](NC(=O)CNC(=O)[C@H](CC(=O)O)NC(=O)[C@H]([C@@H](C)O)NC2=O)C(=O)N[C@@H](CO)C(=O)N[C@@H](CCSC)C(=O)N[C@@H]([C@@H](C)O)C(=O)N[C@@H](CC(=O)O)C(=O)N[C@@H](CC(C)C)C(=O)N[C@@H](CO)C(=O)N[C@@H](C)C(=O)N[C@@H](CC(C)C)C(=O)N[C@H](C(=O)O)CSSC[C@@H](C(=O)NCC(=O)NCC(=O)N[C@@H](CO)C(=O)N[C@@H](CCCNC(=N)N)C(=O)N[C@@H](Cc2c[nH]c3ccccc23)C(=O)O)NC1=O,,,,fold higher activation potency towards RXFP3 than its parent mutant (human RXFP3 [4]; higher than the 4-mutation INSL5): ~ 5 fold; fold lower activation potency towards RXFP3 than relaxin-3 (human RXFP3 [4]; lower than relaxin-3): ~ 20 fold
"[G(B23)A,G(B24)S]R3/I5: recombinant mature two-chain R3/I5 mutant (chain 1 RAAPYGVRLCGREFIRAVIFTCASSRW; chain 2 QDLQTLCCTDGCSMTDLSALC; not fully specified; two-chain, three disulfides; A-chain N-terminal pyroglutamate likely; possible unprinted extra residues as in m2)",8.44 ± 0.04,,,
"CC[C@H](C)[C@@H]1NC(=O)[C@H](Cc2ccc(O)cc2)NC(=O)[C@H]([C@@H](C)CC)NC(=O)[C@H](C(C)C)NC(=O)[C@H]([C@@H](C)O)NC(=O)[C@H](CCCNC(=N)N)NC(=O)[C@H]([C@@H](C)CC)NC(=O)[C@H](Cc2ccc(O)cc2)NC(=O)[C@H](CCC(=O)O)NC(=O)[C@H](CCCNC(=N)N)NC(=O)CNC(=O)[C@@H](NC(=O)[C@H](CC(C)C)NC(=O)[C@H](CCCNC(=N)N)NC(=O)[C@@H](NC(=O)[C@H](CO)NC(=O)[C@H](CCC(=O)O)NC(=O)[C@@H](N)CCCCN)C(C)C)CSSC[C@@H]2NC(=O)[C@@H](NC(=O)[C@H](CC(C)C)NC(=O)[C@@H](NC(=O)[C@H](CCC(N)=O)NC(=O)[C@H](CC(C)C)NC(=O)[C@H](CC(=O)O)NC(=O)[C@@H](N)CCC(N)=O)[C@@H](C)O)CSSC[C@H](NC(=O)CNC(=O)[C@H](CC(=O)O)NC(=O)[C@H]([C@@H](C)O)NC2=O)C(=O)N[C@@H](CO)C(=O)N[C@@H](CCSC)C(=O)N[C@@H]([C@@H](C)O)C(=O)N[C@@H](CC(=O)O)C(=O)N[C@@H](CC(C)C)C(=O)N[C@@H](CO)C(=O)N[C@@H](C)C(=O)N[C@@H](CC(C)C)C(=O)N[C@H](C(=O)O)CSSC[C@@H](C(=O)NCC(=O)NCC(=O)N[C@@H](CO)C(=O)N[C@@H](CCCNC(=N)N)C(=O)N[C@@H](Cc2c[nH]c3ccccc23)C(=O)O)NC1=O [[L(B9)R,A(B20)G,S(B21)G]INSL5]",,,,fold lower binding potency towards RXFP4 compared with wild-type INSL5 (human RXFP4 [2]; lower than wild-type INSL5): ~ 6 fold
"[R(B12)L,F(B20)Y,G(B23)A,G(B24)S]R3/I5: recombinant mature two-chain R3/I5 mutant (chain 1 RAAPYGVRLCGLEFIRAVIYTCASSRW; chain 2 QDLQTLCCTDGCSMTDLSALC; disulfide (positions not given here); not fully specified; also: A-chain N-terminal pyroglutamate likely)",,7.75 ± 0.05,8.40 ± 0.04,

# More lines, main results first:
pEC50 RXFP4 (human RXFP4 [1]),pIC50 RXFP4 (human RXFP4 [2]),pIC50 RXFP3 (human RXFP3 [3]),Compound,further results
9.02 ± 0.05,7.91 ± 0.02,8.45 ± 0.04,"[F(B20)Y,G(B23)A,G(B24)S]R3/I5: recombinant mature two-chain R3/I5 mutant (chain 1 RAAPYGVRLCGREFIRAVIYTCASSRW; chain 2 QDLQTLCCTDGCSMTDLSALC; disulfide (positions not given here); not fully specified; also: A-chain N-terminal pyroglutamate likely)",
8.71 ± 0.06,,,"[R(B12)L,F(B20)Y,G(B23)A,G(B24)S]R3/I5: recombinant mature two-chain R3/I5 mutant (chain 1 RAAPYGVRLCGLEFIRAVIYTCASSRW; chain 2 QDLQTLCCTDGCSMTDLSALC; not fully specified; two-chain, three disulfides; A-chain N-terminal pyroglutamate likely; possible unprinted extra residues as in m2)",
8.16 ± 0.04,7.83 ± 0.04,8.38 ± 0.03,"[R(B12)L,G(B23)A,G(B24)S]R3/I5: recombinant mature two-chain R3/I5 mutant (chain 1 RAAPYGVRLCGLEFIRAVIFTCASSRW; chain 2 QDLQTLCCTDGCSMTDLSALC; disulfide (positions not given here); not fully specified; also: A-chain N-terminal pyroglutamate likely)",
,8.06 ± 0.04,8.61 ± 0.03,"[G(B23)A,G(B24)S]R3/I5: recombinant mature two-chain R3/I5 mutant (chain 1 RAAPYGVRLCGREFIRAVIFTCASSRW; chain 2 QDLQTLCCTDGCSMTDLSALC; disulfide (positions not given here); not fully specified; also: A-chain N-terminal pyroglutamate likely)",
